Results: patent US8748572B2, “RNase a peptides, fragments and uses thereof” (priority 2006, dated 2014)

B1: rRNase A-1: recombinant carboxy-terminal FLAG-tagged Gallus gallus leukocyte RNase A-1, SEQ ID NO: 2, GenBank DQ395275 (protein, listed as Gallus gallus)
chain: VPTYQDFLRTHVDFPKTSFPNIAAYCNVMMVRRGINVHGRCKSLNTFVHTDPRNLNTLCINQPNRALRTTQQQLPVTDCKLIRSHPTCSYTGNQFNHRVRVGCWGGLPVHLDGTFP
modifications: C-terminal FLAG tag
B2: rRNase A-2: recombinant carboxy-terminal FLAG-tagged Gallus gallus leukocyte RNase A-2, SEQ ID NO: 4, GenBank DQ395276 (protein, listed as Gallus gallus)
chain: VPTYQDFLYKHMDFPKTSFPSNAAYCNVMMVRRGMTAHGRCKSFNTFVHTDPRNLNTLCINQPDQALRTTRRHFRITDCKLIRSHPTCRYSGNQFNRRVRVGCRGGLPVHLDGTSP
modifications: C-terminal FLAG tag

Legend:
[1] = system: poly U, poly C, poly A, poly G, poly I, double-stranded RNA; test: ribonuclease assay, substrate preference (polyribonucleotides); type: biochemical; conditions: 50 pmol rRNase, pH 7.0; for hydrolysis of poly U: 250 μg/ml poly U
Procedure: FIGS. 4 A-D are graphs showing the ribonucleolytic activity of recombinant leukocyte RNases. (A) is a graph showing the optimum pH for RNase activity. Enzymatic activity was determined with 50 pmol rRNase A-1 (open squares) and rRNase A-2 (closed circles) that was incubated with 250 μg/ml yeast tRNA in 40 mM sodium phosphate buffer at the pHs indicated. Measurements of A260 per time were converted to pmol/s as described in […] and Methods. (B) is a graph showing the initial rates for RNase activity. Enzymatic activity was determined as described in (A) with 40 mM sodium phosphate buffer, pH 7.0. (C) is a graph showing the substrate preference for RNase activity. 50 pmol rRNase A-1 (left panel) and rRNase A-2 (right panel) proteins were incubated with 250 μg/ml of poly U (open squares), poly C (closed circles), poly A (open diamonds), poly G (open triangles) and poly I (open circles) in 40 mM sodium phosphate buffers, pH 7.0. A260 was measured after precipitation of undigested RNA at each of the time points indicated. (D) is two panels of graphs showing interaction of RNase with human placental RNase inhibitor (hPR1). RNase activity was measured with […] of bovine pancreatic RNase (left) or […] rRNase A-1 and rRNase A-2 (right) with 250 μg/ml of yeast tRNA as substrate with (+) or without (−) 200 U human placental RNase inhibitor (hPR1) in 40 mM sodium phosphate buffer, pH 7.0. The hPR1 was added to the RNases in buffer 5 min prior to initiation of RNase assay by addition of substrate. *p<0.01.
The ribonuclease (RNase) assay with yeast tRNA substrate has been described in detail elsewhere. In this study, 10 μL of a 20 mg/ml solution of yeast tRNA, polyuridylic acid (poly U), polyadenylic acid (poly A), polycytidylic acid (poly C), polyguanylic acid (poly G), or polyinosinic acid (poly I) (Sigma-Aldrich) were added to 800 μl of 40 mM sodium phosphate buffer, pH 7.0 containing recombinant FLAG-tagged chicken RNase protein. In experiments in which the pH optimum was to be determined, 40 mM sodium phosphate buffers of pH 5.0, 5.5, 6.0, 6.5, […] or 8.0 were used instead of the buffer of pH 7.0. In some experiments, 200 U human placental RNase inhibitor (Boehringer Mannheim) were added prior to the addition of the tRNA substrate. Conversion of units A260 per unit time to pmol/s were performed as described in [29], based on the following conversion factors: the average molecular weight of a molecule of tRNA is 28,100 (75-90 ribonucleotides/tRNA molecule×341 MW per ribonucleotide) with an A260 of 1.0 corresponding to 40 μg of RNA.

E. coli DH5α = test: bactericidal colony-forming assay, E. coli; type: cell-based, Escherichia coli
Procedure: FIGS. 5 A & B are graphs showing the bactericidal activity of rRNases A-1 and A-2. In panel (A) E. coli DH5α and in panel (B) S. aureus 502A were re-suspended in 100 mM sodium phosphate buffer, pH 7.4, and incubated with the indicated concentrations of chicken leukocyte RNase A-1 (open squares) and A-2 (closed circles) for 4 h at 37° C., plated on RNase-free LB agar, and grown overnight for colony counts.
RNase A polypeptides and fragments according to the invention that have bactericidal activity are particularly preferred for use in the treatment methods of the invention. The bactericidal and bacteriostatic activity of a particular RNase A polypeptides or fragments can be assessed by known protocols, such as that described in the methods section and the following described protocol, herein referred to as “a standard bacterial colony formation assay.” Bactericidal assays are well-described in the art, and are performed as described previously, and as exemplified in Examples 3-6. Briefly, an aliquot from a single bacterial colony overnight culture grown in Luria-Beitani (LB) broth is diluted 1:100 in sodium phosphate, pH 7.4, collected by centrifugation, and resuspended in sodium phosphate, pH 7.4. An aliquot of bacteria in buffer are incubated for 4 hr at 37° C. with recombinant protein or peptide at concentrations indicated, or diluent control and were then diluted 10, 100, or 1000-fold prior to plating on LB agar for overnight growth for colony counts.
Next, the bactericidal activity of chicken leukocyte RNases were examined using a colony-forming assay as previously described for eosinophil cationic protein [28]. […] E. coli was more susceptible to the bactericidal activity of leukocyte rRNase A-2 than was S. aureus, as 5 μM rRNase A-2 reduced the colony count of E. coli 10^7-fold, while reducing the colony count of S. aureus, only 100-fold. Recombinant RNase A-1 had no effect on colony number of E. coli or S. aureus concentrations up to and including […].
Bactericidal assays were performed as described previously with modifications. Briefly, 100 microliters from a single bacterial colony overnight culture grown in Luria-Bertani (LB) broth was diluted 1:100 in 100 mM sodium phosphate, pH 7.4, collected by centrifugation, and resuspended in 1 ml sodium phosphate, pH 7.4. Ten microliters of bacteria in buffer are incubated for 4 hr at 37° C. with 10 microliters recombinant protein or peptide at concentrations indicated, or diluent control and were then diluted 10, 100, or 1000-fold prior to plating on LB agar for overnight growth for colony counts. All points were determined in triplicate.

isoelectric point = type: physicochemical

| Molecule | hydrolysis of poly U [1] | polyribonucleotides other than poly U as substrates ([1]; 250 μg/ml substrate) | bactericidal activity against E. coli (in words), recombinant proteins (E. coli DH5α; 5 μM, 4 hrs) | effect on colony number of E. coli (E. coli DH5α; concentrations up to and including 5 μl %/1) | isoelectric point (pI) (isoelectric point) | cleavage of poly C and poly A ([1]; 250 μg/ml substrate) | reduction of colony count of E. coli (E. coli DH5α; 5 μM, 4 h at 37° C.) | colony count of E. coli after incubation (E. coli DH5α; 5 μM, 4 hrs) |
| --- | --- | --- | --- | --- | --- | --- | --- | --- |
| B1 | hydrolyzed poly U RNA, at initial rates that were roughly equivalent to one another | poor substrates | no impact on colony count | no effect | 10.2 |  |  |  |
| B2 | hydrolyzed poly U RNA, at initial rates that were roughly equivalent to one another |  |  |  | 11.0 | cleaved poly C and poly A, although at initial rates that were lower than those observed for poly U | 10^7 fold | < 100 CFU/ml |
